Reference: patent publication CN117466995A (YIDAO BIOTECHNOLOGY SUZHOU CO LTD, dated 2024)

What was measured:
Assay in all cases: direct ELISA on coated VLP antigens
HPV 18 VLP抗原 = molecular target: T1, HPV 18 VLP抗原 (HPV 18, UniProt P06794 62-568)
T1 sequence: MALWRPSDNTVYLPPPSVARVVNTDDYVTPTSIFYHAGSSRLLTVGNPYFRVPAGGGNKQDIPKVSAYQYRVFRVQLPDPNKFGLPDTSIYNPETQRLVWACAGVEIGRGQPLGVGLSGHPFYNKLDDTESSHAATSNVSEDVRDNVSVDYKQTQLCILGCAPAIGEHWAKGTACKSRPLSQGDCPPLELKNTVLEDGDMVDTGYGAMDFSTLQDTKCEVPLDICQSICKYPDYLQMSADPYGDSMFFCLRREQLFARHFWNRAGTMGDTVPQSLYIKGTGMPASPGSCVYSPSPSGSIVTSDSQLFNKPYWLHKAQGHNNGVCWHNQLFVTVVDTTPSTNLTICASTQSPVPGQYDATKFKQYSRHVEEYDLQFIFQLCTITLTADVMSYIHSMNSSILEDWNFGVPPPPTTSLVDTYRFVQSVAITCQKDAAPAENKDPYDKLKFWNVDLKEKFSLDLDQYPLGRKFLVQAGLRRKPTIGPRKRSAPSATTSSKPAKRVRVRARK

HPV 31 VLP抗原 = molecular target: T2, HPV 31 VLP抗原 (HPV 31, UniProt P17388 1-504)
T2 sequence: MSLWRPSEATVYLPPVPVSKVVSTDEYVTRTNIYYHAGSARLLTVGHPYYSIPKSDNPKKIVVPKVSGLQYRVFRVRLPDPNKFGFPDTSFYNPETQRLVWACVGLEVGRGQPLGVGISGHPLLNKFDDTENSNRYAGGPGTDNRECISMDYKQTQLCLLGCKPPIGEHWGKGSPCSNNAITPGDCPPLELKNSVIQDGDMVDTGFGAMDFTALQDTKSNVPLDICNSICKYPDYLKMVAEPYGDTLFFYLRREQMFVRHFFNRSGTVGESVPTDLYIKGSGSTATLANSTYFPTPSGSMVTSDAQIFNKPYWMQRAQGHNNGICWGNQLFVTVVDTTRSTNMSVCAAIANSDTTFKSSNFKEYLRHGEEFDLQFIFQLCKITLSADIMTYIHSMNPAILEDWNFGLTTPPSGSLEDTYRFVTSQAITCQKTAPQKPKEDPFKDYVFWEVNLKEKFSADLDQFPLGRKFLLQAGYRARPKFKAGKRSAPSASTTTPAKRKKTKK

HPV 16 VLP抗原 = molecular target: T3, HPV 16 VLP抗原 (HPV 16, UniProt P03101 1-505)
T3 sequence: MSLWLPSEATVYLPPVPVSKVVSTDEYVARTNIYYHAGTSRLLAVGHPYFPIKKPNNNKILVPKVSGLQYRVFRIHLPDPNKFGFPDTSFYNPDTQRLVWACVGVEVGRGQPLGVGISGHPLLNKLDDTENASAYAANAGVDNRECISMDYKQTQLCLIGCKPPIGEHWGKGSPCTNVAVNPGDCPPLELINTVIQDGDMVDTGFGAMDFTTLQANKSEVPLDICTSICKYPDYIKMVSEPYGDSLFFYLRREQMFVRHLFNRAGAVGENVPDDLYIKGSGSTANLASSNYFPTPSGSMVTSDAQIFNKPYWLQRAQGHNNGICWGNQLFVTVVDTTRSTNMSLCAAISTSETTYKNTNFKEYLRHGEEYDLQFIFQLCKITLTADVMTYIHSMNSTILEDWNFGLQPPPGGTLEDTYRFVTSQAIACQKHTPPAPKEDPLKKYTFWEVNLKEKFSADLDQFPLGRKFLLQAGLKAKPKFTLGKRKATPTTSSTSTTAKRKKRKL

HPV 58 VLP抗原 = molecular target: T4, HPV 58 VLP抗原 (HPV 58, UniProt P26535 27-524)
T4 sequence: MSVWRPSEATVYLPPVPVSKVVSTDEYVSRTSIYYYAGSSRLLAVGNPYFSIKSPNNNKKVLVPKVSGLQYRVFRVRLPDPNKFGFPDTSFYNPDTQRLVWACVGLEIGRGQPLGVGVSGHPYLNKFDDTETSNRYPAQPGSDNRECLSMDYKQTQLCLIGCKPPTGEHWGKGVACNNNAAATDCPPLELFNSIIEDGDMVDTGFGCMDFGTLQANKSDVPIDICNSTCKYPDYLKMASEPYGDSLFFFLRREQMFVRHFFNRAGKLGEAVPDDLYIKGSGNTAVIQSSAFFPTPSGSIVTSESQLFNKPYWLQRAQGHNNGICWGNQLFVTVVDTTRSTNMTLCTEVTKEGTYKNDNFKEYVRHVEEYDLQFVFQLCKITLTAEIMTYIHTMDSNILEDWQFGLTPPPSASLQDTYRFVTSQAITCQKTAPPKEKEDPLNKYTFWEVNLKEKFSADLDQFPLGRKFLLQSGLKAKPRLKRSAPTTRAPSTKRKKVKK

HPV11 VLP抗原 = molecular target: T5, HPV11 VLP抗原 (HPV11, UniProt P04012 1-501)
T5 sequence: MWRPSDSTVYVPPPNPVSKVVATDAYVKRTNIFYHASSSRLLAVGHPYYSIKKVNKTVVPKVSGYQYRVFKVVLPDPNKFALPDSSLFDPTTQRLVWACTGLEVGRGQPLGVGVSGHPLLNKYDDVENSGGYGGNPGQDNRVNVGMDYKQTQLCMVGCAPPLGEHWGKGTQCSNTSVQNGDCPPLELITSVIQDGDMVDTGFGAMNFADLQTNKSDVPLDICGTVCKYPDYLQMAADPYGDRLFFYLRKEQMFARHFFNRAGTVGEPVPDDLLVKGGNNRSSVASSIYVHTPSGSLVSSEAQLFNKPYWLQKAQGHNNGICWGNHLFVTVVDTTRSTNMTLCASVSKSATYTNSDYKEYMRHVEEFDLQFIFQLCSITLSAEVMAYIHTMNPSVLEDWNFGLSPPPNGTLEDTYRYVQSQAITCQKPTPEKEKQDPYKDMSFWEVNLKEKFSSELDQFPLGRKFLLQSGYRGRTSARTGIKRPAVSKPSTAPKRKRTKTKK

Measured: binding result

B1: 杂交瘤细胞株7A5(CGMCC NO:45706)分泌的鼠源单克隆抗体 (antibody, V domains shown)
VH: QPGAELVKPGASVKLSCKASGYTFTSYWMHWVKQRPGQGLEWIGEINPSNGHTNYNEKFKSKATLTVDKSSSTAYMQLSSLTSEDSAVYYCAPCYGSSYDYYAMDYWGQGTSVTVSS
VL: DIVLTQSPASLAVSLGQRATISCRASQSVSTSSYSYMHWYQQKPGQPPKLLIKYASNLESGVPARFSGSGSGTDFTLNIHPVEEEDTATYYCQHSWEIPYTFGGGTKLEIK
notes: also called 鼠单抗7A5; 抗体7A5
no binding: all assays above

B2: 杂交瘤细胞株11G1(CGMCC NO:45707)分泌的鼠源单克隆抗体 (antibody, V domains shown)
VH: QVQLQQPGAELVKPGASVKLSCKASGYTFTSYWMHWVKRRPGQGLEWIGEINPSNGLTNYNEKFKSKGTLTVDKSSSAAFMHLSSLTSEDSAVYYCARFHGSDLYAMDYWGQGTSVTVSS
VL: B1 VL
notes: also called 鼠单抗11G1; 抗体11G1
no binding: all assays above
